Reference: patent US20240076371A1, “COMPOSITIONS AND METHODS FOR TREATING OSTEOARTHRITIS, RHEUMATOID ARTHRITIS, AND JOINT AND TENDON DISORDERS” (BOARD OF REGENTS, THE UNIVERSITY OF TEXAS SYSTEM, priority 2021, published 2024)

Columns and labels:
[1] = target: T1, Cx43 hemichannels in mouse macrophage RAW264.7 cells (Mus musculus, UniProt P23242); assay: EtBr dye uptake assay in LPS-treated RAW264.7 cells; format: cell-based
T1 construct: endogenous in cells; host or cells: RAW264.7 (mouse macrophage), LPS-treated
T1 sequence (P23242 whole entry): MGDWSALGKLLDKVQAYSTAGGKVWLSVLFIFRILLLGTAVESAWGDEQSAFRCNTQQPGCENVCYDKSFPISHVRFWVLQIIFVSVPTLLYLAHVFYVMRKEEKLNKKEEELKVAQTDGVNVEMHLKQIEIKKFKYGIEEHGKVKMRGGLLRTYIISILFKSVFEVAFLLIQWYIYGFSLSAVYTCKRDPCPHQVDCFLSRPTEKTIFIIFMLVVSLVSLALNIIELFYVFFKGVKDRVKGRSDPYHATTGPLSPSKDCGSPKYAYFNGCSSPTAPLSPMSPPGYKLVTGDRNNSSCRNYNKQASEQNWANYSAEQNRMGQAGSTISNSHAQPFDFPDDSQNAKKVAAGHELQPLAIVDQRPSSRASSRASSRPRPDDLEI
Method: (§1) Dye uptake assay. Cells were incubated with a mixture of 0.1 mM ethidium bromide (EtBr, MW 394 Da) and 1 mg/ml FITC-dextran (MW 10 kDa) for 5 minutes. EtBr was used as a tracer to detect hemichannel activity, and FITC-dextran, which is too large to pass through hemichannels but is taken up by dying cells, was used as a negative control. Cells were then rinsed five times with PBS, followed by fixing with 2% paraformaldehyde for 10 minutes. At least six microphotographs of fluorescence fields were captured under a 20× fluorescent microscope (Keyence, BZ-X710, Osaka, Japan). For each image, the average intensity of EtBr fluorescence was measured and quantified from at least 30 random cells using ImageJ software (NIH, Bethesda, USA). […]
(§2) Anti-Cx43 hemichannel antibody (M1 antibody) blocked Cx43 hemichannel opening and inflammatory gene expression in RAW264.7 and SW982 cells. […] The activity of Cx43 hemichannels was determined using EtBr dye uptake assay. […] Next, MMP3/13, Cyclooxygenase 2 (COX2), ADAM metallopeptidase with thrombospondin type 1 motif 4 (Adamts4), and IL6 gene expression was determined with or without Cx43E2 antibody after LPS treatment of RAW264.7 cells (FIG. 18). […] In addition, MMP3/13, COX2, Adamts4/5, and Nitric Oxide Synthase 2 (NOS2) gene expression was evaluated in IL1β-treated SW982 cells (FIG. 19).

[2] = target: T2, Cx43 hemichannels in human synovial fibroblast SW982 cells (Homo sapiens, UniProt P17302); assay: EtBr dye uptake assay in IL1β-treated SW982 cells; format: cell-based
T2 construct: endogenous in cells; host or cells: SW982 (human synovial fibroblast), IL1β-treated
T2 sequence (P17302 whole entry): as the sequence (P23242 whole entry) above, with E124D, V164I, R243K, T251S, P253A, S257A, P263Q, S341N, A344S, V347L counted along it
Method: as §1, §2

[3] = target: T3, Connexin 43 (Cx43) hemichannel, mouse (mouse, UniProt P23242 2-382); assay: in vivo binding after i.p. injection; frozen knee sections stained with Alexa Fluor 594 anti-human IgG
T3 construct: whole, on cells; also called Cx43 HCs
T3 sequence (P23242 2-382): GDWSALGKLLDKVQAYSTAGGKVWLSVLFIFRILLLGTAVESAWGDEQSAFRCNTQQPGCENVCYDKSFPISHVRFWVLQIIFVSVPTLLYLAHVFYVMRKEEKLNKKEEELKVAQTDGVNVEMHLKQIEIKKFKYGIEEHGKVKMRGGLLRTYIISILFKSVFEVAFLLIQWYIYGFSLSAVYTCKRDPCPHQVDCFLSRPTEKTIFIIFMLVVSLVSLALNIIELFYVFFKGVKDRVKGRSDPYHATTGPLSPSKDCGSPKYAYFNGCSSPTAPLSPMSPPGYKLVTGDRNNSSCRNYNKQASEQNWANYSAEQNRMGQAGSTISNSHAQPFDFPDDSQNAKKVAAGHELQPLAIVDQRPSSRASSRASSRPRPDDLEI
Method: M1 antibody binds to synovium and inhibits hemichannel opening in OA. Due to the dense nature of cartilage and large size of antibodies, a widely held perception is that antibodies are unable to penetrate the cartilage matrix. To determine the antibody binding pattern in the knee joint region, M1 antibody (25 mg/kg) with human IgG epitope or saline was intraperitoneally (i.p.) injected at 30 mins after DMM surgery. As shown in the diagram (FIG. 8A), mice were euthanized and perfused before isolation of hindlimbs at one or two weeks after injection. Frozen tissue sections were prepared and immuno-labeled with Alexa Fluor 594-conjugated anti-human IgG secondary antibody. The signal was detectable at both one and two weeks after antibody administration, with the antibody binding site primarily localized in the synovium region (FIG. 8B). The synovium of joints comprises macrophage-like type A cells, which are responsible for phagocytosing synovial fluid, and fibroblast-like type B cells, which produce hyaluronic acid and mucin to nourish and mechanically protect, respectively, the underlying articular cartilage (Donahue H J, et al. Nature reviews Rheumatology. 2017; 14(1):42-51). Then the sections were immuno-labeled with the macrophage marker CD68, and the M1 antibody was co-localized with CD68 in the synovium region (FIG. 9). […]

[4] = test system: LPS-induced inflammatory gene expression in RAW264.7 cells; assay: qRT-PCR of LPS-induced inflammatory gene expression in RAW264.7 cells; format: cell-based, mouse; conditions: pre-incubated 30 min, 0.1 μg/ml LPS for 4 hrs
Method: Mouse macrophage RAW264.7 cells were pre-incubated with or without the Cx43E2 antibody for 30 min followed by incubation with 0.1 μg/ml LPS for 4 hrs. RNA extracts were prepared and subjected to qRT-PCR analysis for COX2, Adamts4, MMP3/13 and IL6 mRNA expression. *P<0.05, **P<0.01.
(§3) RNA isolation and real-time PCR. Total RNA was isolated from RAW264.7 and SW982 cells using TRI Reagent (Molecular Research Center, Cincinnati, USA) according to the manufacturer's instructions. After RNA quantification by Nanodrop 2000, cDNA was synthesized from 1 μg of total RNA using the high-capacity RNA-to-cDNA kit (Thermo Fisher Scientific, Waltham, USA). […]
as §2

[5] = test system: IL1β-induced inflammatory gene expression in SW982 cells; assay: qRT-PCR of IL1β-induced inflammatory gene expression in SW982 cells; format: cell-based, human; conditions: pre-incubated 30 min, 1 ng/ml IL1β for 14 hrs
Method: Human synovial fibroblast SW982 cells were pre-incubated with or without the Cx43E2 antibody for 30 min followed by incubation with 1 ng/ml IL1β for 14 hrs. RNA extracts were prepared and subjected to qRT-PCR analysis for COX2, Adamts4/5, MMP3/13 and NOS2 mRNA expression. *P<0.05, **P<0.01.
as §3, §2

CC1(C)[C@@H](OC(=O)CCC(=O)O)CC[C@]2(C)[C@H]3C(=O)C=C4[C@@H]5C[C@@](C)(C(=O)O)CC[C@]5(C)CC[C@@]4(C)[C@]3(C)CC[C@@H]12 [carbenoxolone, reference compound]
LPS-induced increase of Cx43 hemichannel opening (EtBr dye uptake) ([1]; CBX 100 μM): abolished | IL1β-induced increase of Cx43 hemichannel opening (EtBr dye uptake) ([2]; CBX 100 μM): abolished

B1: M1 antibody (anti-Cx43 hemichannel blocking antibody) (antibody, V domains shown)
VH: EVQLQQPGAELVKPGASVKLSCKASGYTFTSYYMYWVKQRPGQGLEWIGGINPSNGGTNFNEKFKNKATLTVDKSSSTAYMQLSSLTSEDSAVYYCTREGNPYYTMNYWGQGTSVTVSS
VL: DIVMTQSPSSLSVSAGEKVTMSCKSSQSLLNSGNQKTYLAWYQQKPGQPPKLLIYGASTRESGVPDRFTGSGSGTDFTLTISSVQAEDLAVYYCQNDHSYPFTFGSGTKLEIK
notes: also called HmAb1; anti-Cx43 hemichannel antibody
binding result [3]: binds

B2: Cx43E2 blocking antibody: Cx43 hemichannel blocking antibody used in RAW264.7 and SW982 cells; headings and legends call it anti-Cx43 hemichannel antibody (M1 antibody) (antibody, V domains shown)
VH: EVQLQQPGAELVKPGASVKLSCKASGYTFTSYYMYWVKQRPGQGLEWIGGINPSNGGTNFNEKFKNKATLTVDKSSSTAYMQLSSLTSEDSAVYYCTREGNPYYTMNYWGQGTSVTVSS
VL: DIVMTQSPSSLSVSAGEKVTMSCKSSQSLLNSGNQKTYLAWYQQKPGQPPKLLIYGASTRESGVPDRFTGSGSGTDFTLTISSVQAEDLAVYYCQNDHSYPFTFGSGTKLEIK
LPS-induced increase of Cx43 hemichannel opening (EtBr dye uptake) ([1]; antibody 2 μg/ml): abolished | IL1β-induced increase of Cx43 hemichannel opening (EtBr dye uptake) ([2]; antibody 2 μg/ml): abolished | LPS-induced up-regulation of MMP3/13, COX2, Adamts4 and IL6 gene expression [4]: markedly decreased | MMP3/13, COX2, Adamts4/5 and NOS2 gene expression after IL1β treatment [5]: significantly reduced
